Source: patent publication US12099068B2, “Biomarkers for graft-versus-host disease” (Incyte Corporation, priority 2018, dated 2024)

B1: SELL (protein, UniProt P14151 39-372, looked up)
L-selectin: WTYHYSEKPMNWQRARRFCRDNYTDLVAIQNKAEIEYLEKTLPFSRSYYWIGIRKIGGIWTWVGTNKSLTEEAENWGDGEPNNKKNKEDCVEIYIKRNKDAGKWNDDACHKLKAALCYTASCQPWSCSGHGECVEIINNYTCNCDVGYYGPQCQFVIQCEPLEAPELGTMDCTHPLGNFSFSSQCAFSCSEGTNLTGIEETTCGPFGNWSSPEPTCQVIQCEPLSAPDLGIMNCSHPLASFSFTSACTFICSEGTELIGKKKTICESSGIWSNPSPICQKLDKSFSMIKEGDYNPLFIPVAVMVTAFSGLAFIIWLARRLKKGKKSKRSMNDPY
B2: TANK (protein, UniProt Q92844 1-425, looked up)
TRAF family member-associated …: MDKNIGEQLNKAYEAFRQACMDRDSAVKELQQKTENYEQRIREQQEQLSLQQTIIDKLKSQLLLVNSTQDNNYGCVPLLEDSETRKNNLTLDQPQDKVISGIAREKLPKVRRQEVSSPRKETSARSLGSPLLHERGNIEKTFWDLKEEFHKICMLAKAQKDHLSKLNIPDTATETQCSVPIQCTDKTDKQEALFKPQAKDDINRGAPSITSVTPRGLCRDEEDTSFESLSKFNVKFPPMDNDSTFLHSTPERPGILSPATSEAVCQEKFNMEFRDNPGNFVKTEETLFEIQGIDPIASAIQNLKTTDKTKPSNLVNTCIRTTLDRAACLPPGDHNALYVNSFPLLDPSDAPFPSLDSPGKAIRGPQQPIWKPFPNQDSDSVVLSGTDSELHIPRVCEFCQAVFPPSITSRGDFLRHLNSHFNGET
B3: CCL17 (protein, UniProt Q92583 24-94, looked up)
C-C motif chemokine 17: ARGTNVGRECCLEYFKGAIPLRKLKTWYQTSEDCSRDAIVFVTVQGRAICSDPNNKRVKNAVKYLQSLERS
B4: SLAMF1 (protein, UniProt Q13291 21-335, looked up)
Signaling lymphocytic …: ASYGTGGRMMNCPKILRQLGSKVLLPLTYERINKSMNKSIHIVVTMAKSLENSVENKIVSLDPSEAGPPRYLGDRYKFYLENLTLGIRESRKEDEGWYLMTLEKNVSVQRFCLQLRLYEQVSTPEIKVLNKTQENGTCTLILGCTVEKGDHVAYSWSEKAGTHPLNPANSSHLLSLTLGPQHADNIYICTVSNPISNNSQTFSPWPGCRTDPSETKPWAVYAGLLGGVIMILIMVVILQLRRRGKTNHYQTTVEKKSLTIYAQVQKPGPLQKKLDSFPAQDPCTTIYVAATEPVPESVQETNSITVYASVTLPES
B5: SELE (protein, UniProt P16581 22-610, looked up)
E-selectin: WSYNTSTEAMTYDEASAYCQQRYTHLVAIQNKEEIEYLNSILSYSPSYYWIGIRKVNNVWVWVGTQKPLTEEAKNWAPGEPNNRQKDEDCVEIYIKREKDVGMWNDERCSKKKLALCYTAACTNTSCSGHGECVETINNYTCKCDPGFSGLKCEQIVNCTALESPEHGSLVCSHPLGNFSYNSSCSISCDRGYLPSSMETMQCMSSGEWSAPIPACNVVECDAVTNPANGFVECFQNPGSFPWNTTCTFDCEEGFELMGAQSLQCTSSGNWDNEKPTCKAVTCRAVRQPQNGSVRCSHSPAGEFTFKSSCNFTCEEGFMLQGPAQVECTTQGQWTQQIPVCEAFQCTALSNPERGYMNCLPSASGSFRYGSSCEFSCEQGFVLKGSKRLQCGPTGEWDNEKPTCEAVRCDAVHQPPKGLVRCAHSPIGEFTYKSSCAFSCEEGFELHGSTQLECTSQGQWTEEVPSCQVVKCSSLAVPGKINMSCSGEPVFGTVCKFACPEGWTLNGSAARTCGATGHWSGLLPTCEAPTESNIPLVAGLSAAGLSLLTLAPFLLWLRKCLRKAKKFVPASSCQSLESDGSYQKPSYIL
B6: MESDC2 (protein, UniProt Q14696 34-234, looked up)
LRP chaperone MESD: AEGSPGTPDESTPPPRKKKKDIRDYNDADMARLLEQWEKDDDIEEGDLPEHKRPSAPVDFSKIDPSKPESILKMTKKGKTLMMFVTVSGSPTEKETEEITSLWQGSLFNANYDVQRFIVGSDRAIFMLRDGSYAWEIKDFLVGQDRCADVTLEGQVYPGKGGGSKEKNKTKQDKGKKKKEGDLKSRSSKEENRAGNKREDL
B7: PDGF subunit B (protein, UniProt P01127 82-190, looked up)
Platelet-derived growth …: SLGSLTIAEPAMIAECKTRTEVFEISRRLIDRTNANFLVWPPCVEVQRCSGCCNNRNVQCRPTQVQLRPVQVRKIEIVRKKPIFKKATVTLEDHLACKCETVAAARPVT
B8: CRTAM (protein, UniProt O95727 18-393, looked up)
Cytotoxic and regulatory …: SLTNHTETITVEEGQTLTLKCVTSLRKNSSLQWLTPSGFTIFLNEYPALKNSKYQLLHHSANQLSITVPNVTLQDEGVYKCLHYSDSVSTKEVKVIVLATPFKPILEASVIRKQNGEEHVVLMCSTMRSKPPPQITWLLGNSMEVSGGTLHEFETDGKKCNTTSTLIIHTYGKNSTVDCIIRHRGLQGRKLVAPFRFEDLVTDEETASDALERNSLSSQDPQQPTSTVSVTEDSSTSEIDKEEKEQTTQDPDLTTEANPQYLGLARKKSGILLLTLVSFLIFILFIIVQLFIMKLRKAHVIWKKENEVSEHTLESYRSRSNNEETSSEEKNGQSSHPMRCMNYITKLYSEAKTKRKENVQHSKLEEKHIQVPESIV
B9: CPXM1 (protein, UniProt Q96SM3 21-734, looked up)
Probable carboxypeptidase X1: APRNSVLGLAQPGTTKVPGSTPALHSSPAQPPAETANGTSEQHVRIRVIKKKKVIMKKRKKLTLTRPTPLVTAGPLVTPTPAGTLDPAEKQETGCPPLGLESLRVSDSRLEASSSQSFGLGPHRGRLNIQSGLEDGDLYDGAWCAEEQDADPWFQVDAGHPTRFSGVITQGRNSVWRYDWVTSYKVQFSNDSRTWWGSRNHSSGMDAVFPANSDPETPVLNLLPEPQVARFIRLLPQTWLQGGAPCLRAEILACPVSDPNDLFLEAPASGSSDPLDFQHHNYKAMRKLMKQVQEQCPNITRIYSIGKSYQGLKLYVMEMSDKPGEHELGEPEVRYVAGMHGNEALGRELLLLLMQFLCHEFLRGNPRVTRLLSEMRIHLLPSMNPDGYEIAYHRGSELVGWAEGRWNNQSIDLNHNFADLNTPLWEAQDDGKVPHIVPNHHLPLPTYYTLPNATVAPETRAVIKWMKRIPFVLSANLHGGELVVSYPFDMTRTPWAARELTPTPDDAVFRWLSTVYAGSNLAMQDTSRRPCHSQDFSVHGNIINGADWHTVPGSMNDFSYLHTNCFEVTVELSCDKFPHENELPQEWENNKDALLTYLEQVRMGIAGVVRDKDTELGIADAVIAVDGINHDVTTAWGGDYWRLLTPGDYMVTASAEGYHSVTRNCRVTFEEGPFPCNFVLTKTPKQRLRELLAAGAKVPPDLRRRLERLRGQKD
B10: PEBP1 (protein, UniProt P30086 2-187, looked up)
Phosphatidylethanolamine-bindi …: PVDLSKWSGPLSLQEVDEQPQHPLHVTYAGAAVDELGKVLTPTQVKNRPTSISWDGLDSGKLYTLVLTDPDAPSRKDPKYREWHHFLVVNMKGNDISSGTVLSDYVGSGPPKGTGLHRYVWLVYEQDRPLKCDEPILSNRSGDHRGKFKVASFRKKYELRAPVAGTCYQAEWDDYVPKLYEQLSGK
B11: LILRB2 (protein, UniProt Q8N423 22-597, looked up)
Leukocyte immunoglobulin-like …: QTGTIPKPTLWAEPDSVITQGSPVTLSCQGSLEAQEYRLYREKKSASWITRIRPELVKNGQFHIPSITWEHTGRYGCQYYSRARWSELSDPLVLVMTGAYPKPTLSAQPSPVVTSGGRVTLQCESQVAFGGFILCKEGEDEHPQCLNSQPHARGSSRAIFSVGPVSPNRRWSHRCYGYDLNSPYVWSSPSDLLELLVPGVSKKPSLSVQPGPVMAPGESLTLQCVSDVGYDRFVLYKEGERDLRQLPGRQPQAGLSQANFTLGPVSRSYGGQYRCYGAHNLSSECSAPSDPLDILITGQIRGTPFISVQPGPTVASGENVTLLCQSWRQFHTFLLTKAGAADAPLRLRSIHEYPKYQAEFPMSPVTSAHAGTYRCYGSLNSDPYLLSHPSEPLELVVSGPSMGSSPPPTGPISTPGPEDQPLTPTGSDPQSGLGRHLGVVIGILVAVVLLLLLLLLLFLILRHRRQGKHWTSTQRKADFQHPAGAVGPEPTDRGLQWRSSPAADAQEENLYAAVKDTQPEDGVEMDTRAAASEAPQDVTYAQLHSLTLRRKATEPPPSQEREPPAEPSIYATLAIH
B12: hK14 (protein, UniProt Q9P0G3 41-267, looked up)
Kallikrein-14: IIGGHTCTRSSQPWQAALLAGPRRRFLCGGALLSGQWVITAAHCGRPILQVALGKHNLRRWEATQQVLRVVRQVTHPNYNSRTHDNDLMLLQLQQPARIGRAVRPIEVTQACASPGTSCRVSGWGTISSPIARYPASLQCVNINISPDEVCQKAYPRTITPGMVCAGVPQGGKDSCQGDSGGPLVCRGQLQGLVSWGMERCALPGYPGVYTNLCKYRSWIEETMRDK
B13: SCARF1 (protein, UniProt Q14162 20-830, looked up)
Scavenger receptor class F …: SELDPKGQHVCVASSPSAELQCCAGWRQKDQECTIPICEGPDACQKDEVCVKPGLCRCKPGFFGAHCSSRCPGQYWGPDCRESCPCHPHGQCEPATGACQCQADRWGARCEFPCACGPHGRCDPATGVCHCEPGWWSSTCRRPCQCNTAAARCEQATGACVCKPGWWGRRCSFRCNCHGSPCEQDSGRCACRPGWWGPECQQQCECVRGRCSAASGECTCPPGFRGARCELPCPAGSHGVQCAHSCGRCKHNEPCSPDTGSCESCEPGWNGTQCQQPCLPGTFGESCEQQCPHCRHGEACEPDTGHCQRCDPGWLGPRCEDPCPTGTFGEDCGSTCPTCVQGSCDTVTGDCVCSAGYWGPSCNASCPAGFHGNNCSVPCECPEGLCHPVSGSCQPGSGSRDTALIAGSLVPLLLLFLGLACCACCCWAPRSDLKDRPARDGATVSRMKLQVWGTLTSLGSTLPCRSLSSHKLPWVTVSHHDPEVPFNHSFIEPPSAGWATDDSFSSDPESGEADEVPAYCVPPQEGMVPVAQAGSSEASLAAGAFPPPEDASTPFAIPRTSSLARAKRPSVSFAEGTKFAPQSRRSSGELSSPLRKPKRLSRGAQSGPEGREAEESTGPEEAEAPESFPAAASPGDSATGHRRPPLGGRTVAEHVEAIEGSVQESSGPVTTIYMLAGKPRGSEGPVRSVFRHFGSFQKGQAEAKVKRAIPKPPRQALNRKKGSPGLASGSVGQSPNSAPKAGLPGATGPMAVRPEEAVRGLGAGTESSRRAQEPVSGCGSPEQDPQKQAEEERQEEPEYENVVPISRPPEP

Tested on: plasma proteins
Test: Plasma proteins modulated between baseline and day 28 in responders (CR, VGPR, PR; n = 19), Example 6 (Table 13)
Format: in vivo, human
Conditions: plasma protein (OLINK NPX); responders (CR, VGPR, PR; n = 19); itacitinib 200 mg or 300 mg QD with corticosteroids; day 28 vs baseline
Method in brief: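 Longitudinal comparison, day 28 versus baseline, with steroid-naive (N=10) and steroid-refractory (N=18) patients combined. Proteins measured by OLINK proximity extension, log2 normalized protein expression. Differences tested by t tests, ANOVA, Pearson correlation, P<0.05 significant.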

Molecule | Fold Change, Decreased Expression from Baseline to Day 28 | Fold Change, Increased Expression from Baseline to Day 28
B1 | −1.4428 | –
B2 | −1.3124 | –
B3 | −3.059 | –
B4 | −1.2218 | –
B5 | −1.5291 | –
B6 | −1.7056 | –
B7 | −1.9124 | –
B8 | −1.5805 | –
B9 | −1.4779 | –
B10 | −1.307 | –
B11 | −1.2555 | –
B12 | – | 1.5574
B13 | −1.3509 | –
